This note sets out measurements from US20140087995A1 (published 2014).

Numbered stars: 1 amine (or outer) side, 2 acyl side, 3 side chain; on linkers, the order of the positions; unused ones are H or OH. Bridge positions count the residues as written; N and C are the ends. Side chains are listed from the residue outwards. Ends that are not written are not given here. * marks the point of attachment. C20 diacid = O=C(O)CCCCCCCCCCCCCCCCCCC(=O)*; γGlu = O=C(O)[C@H](CCC(=O)[*:2])N[*:1]; AEEA = NCCOCCOCC(=O)O

For experiment [1], the target named is T1, human calcitonin receptor (human, UniProt P30988 25-474).
T1 construct: whole, on cells; also called hCTR; hCT
T1 sequence (looked up): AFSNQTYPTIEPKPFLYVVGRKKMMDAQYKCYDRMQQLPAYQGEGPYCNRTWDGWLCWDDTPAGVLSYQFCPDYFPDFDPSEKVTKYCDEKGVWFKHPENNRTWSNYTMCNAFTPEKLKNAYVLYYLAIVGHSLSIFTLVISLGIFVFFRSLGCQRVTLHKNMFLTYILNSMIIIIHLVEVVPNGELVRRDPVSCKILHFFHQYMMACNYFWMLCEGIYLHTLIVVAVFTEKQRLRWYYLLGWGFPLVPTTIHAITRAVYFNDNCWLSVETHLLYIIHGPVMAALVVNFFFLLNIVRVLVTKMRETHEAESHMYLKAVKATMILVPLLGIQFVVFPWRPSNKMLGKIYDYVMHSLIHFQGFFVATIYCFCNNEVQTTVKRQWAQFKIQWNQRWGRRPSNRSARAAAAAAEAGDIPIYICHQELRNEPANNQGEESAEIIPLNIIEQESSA
Briefly: SPA radioligand competition (125I-calcitonin), membranes of BHK cells with human calcitonin receptor. In outline:
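BHK hCTR membranes 35 ng/μL + SPA beads 0.05 mg/well; buffer 50 mM Hepes pH 7.4, 1 mM CaCl2, 5 mM MgCl₂, 0.1% OA, 0.02% Tween20. 120 min, 25° C., shaking. Scintillation count; IC50 by one-site binding competition.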
Background: Loss of bound radioactivity is the signal in a displacement assay; it reports binding, not function.

Experiment [2] has as its target T1, human calcitonin receptor. Briefly: ratio of IC50 at human calcitonin receptor to IC50 at human amylin receptor (SPA competition assays). In outline: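 IC₅₀ values were derived by one-site competition analysis of SPA counts. Cell membranes (35 ng/μL) with SPA beads were incubated with test compounds for 120 min at 25° C in Hepes buffer, pH 7.4, containing CaCl2, MgCl₂, OA and Tween20.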

B1: N^ε1-[2-[2-[2-[[(4S)-4-carboxy-4-(19-carboxynonadecanoylamino)butanoyl]amino]ethoxy]ethoxy]acetyl]-[Ser14,Arg17,Pro21,Pro27,Pro31]-h-amylin (peptide)
peptide: K([AEEA-γGlu-C20 diacid])CNTATCATQRLASFLRHSSPNFGAIPSSTPVGSNTY-NH2
modifications: disulfide 2-7; N-terminus assumed
SMILES: CC[C@H](C)[C@H](NC(=O)[C@H](C)NC(=O)CNC(=O)[C@H](Cc1ccccc1)NC(=O)[C@H](CC(N)=O)NC(=O)[C@@H]1CCCN1C(=O)[C@H](CO)NC(=O)[C@H](CO)NC(=O)[C@H](Cc1c[nH]cn1)NC(=O)[C@H](CCCNC(=N)N)NC(=O)[C@H](CC(C)C)NC(=O)[C@H](Cc1ccccc1)NC(=O)[C@H](CO)NC(=O)[C@H](C)NC(=O)[C@H](CC(C)C)NC(=O)[C@H](CCCNC(=N)N)NC(=O)[C@H](CCC(N)=O)NC(=O)[C@@H](NC(=O)[C@H](C)NC(=O)[C@@H]1CSSC[C@H](NC(=O)[C@@H](N)CCCCNC(=O)COCCOCCNC(=O)CC[C@H](NC(=O)CCCCCCCCCCCCCCCCCCC(=O)O)C(=O)O)C(=O)N[C@@H](CC(N)=O)C(=O)N[C@@H]([C@@H](C)O)C(=O)N[C@@H](C)C(=O)N[C@@H]([C@@H](C)O)C(=O)N1)[C@@H](C)O)C(=O)N1CCC[C@H]1C(=O)N[C@@H](CO)C(=O)N[C@@H](CO)C(=O)N[C@H](C(=O)N1CCC[C@H]1C(=O)N[C@H](C(=O)NCC(=O)N[C@@H](CO)C(=O)N[C@@H](CC(N)=O)C(=O)N[C@H](C(=O)N[C@@H](Cc1ccc(O)cc1)C(N)=O)[C@@H](C)O)C(C)C)[C@@H](C)O
notes: also called compound 73
Consider B1, for which the IC50 in experiment [1] was determined as 5.38 nM. For the same molecule, the “Ratio hCT/hAmylin binding” value in experiment [2] worked out at 51.7.

B2: N^ε1-[(4S)-4-carboxy-4-(19-carboxynonadecanoylamino)butanoyl]-[Ala14,Arg17,Pro21,Pro27,Pro34]-h-amylin (peptide)
peptide: K([γGlu-C20 diacid])CNTATCATQRLAAFLRHSSPNFGAIPSSTNVGPNTY-NH2
modifications: disulfide 2-7; N-terminus assumed
SMILES: CC[C@H](C)[C@H](NC(=O)[C@H](C)NC(=O)CNC(=O)[C@H](Cc1ccccc1)NC(=O)[C@H](CC(N)=O)NC(=O)[C@@H]1CCCN1C(=O)[C@H](CO)NC(=O)[C@H](CO)NC(=O)[C@H](Cc1c[nH]cn1)NC(=O)[C@H](CCCNC(=N)N)NC(=O)[C@H](CC(C)C)NC(=O)[C@H](Cc1ccccc1)NC(=O)[C@H](C)NC(=O)[C@H](C)NC(=O)[C@H](CC(C)C)NC(=O)[C@H](CCCNC(=N)N)NC(=O)[C@H](CCC(N)=O)NC(=O)[C@@H](NC(=O)[C@H](C)NC(=O)[C@@H]1CSSC[C@H](NC(=O)[C@@H](N)CCCCNC(=O)CC[C@H](NC(=O)CCCCCCCCCCCCCCCCCCC(=O)O)C(=O)O)C(=O)N[C@@H](CC(N)=O)C(=O)N[C@@H]([C@@H](C)O)C(=O)N[C@@H](C)C(=O)N[C@@H]([C@@H](C)O)C(=O)N1)[C@@H](C)O)C(=O)N1CCC[C@H]1C(=O)N[C@@H](CO)C(=O)N[C@@H](CO)C(=O)N[C@H](C(=O)N[C@@H](CC(N)=O)C(=O)N[C@H](C(=O)NCC(=O)N1CCC[C@H]1C(=O)N[C@@H](CC(N)=O)C(=O)N[C@H](C(=O)N[C@@H](Cc1ccc(O)cc1)C(N)=O)[C@@H](C)O)C(C)C)[C@@H](C)O
notes: also called compound 94
For B2, the IC50 in experiment [1] is 6.86 nM. Besides, in experiment [2], the “Ratio hCT/hAmylin binding” value was determined as 46.3.

B3: N^ε1-[(4S)-4-carboxy-4-(19-carboxynonadecanoylamino)butanoyl]-[Arg17,Pro21,Pro27,Arg34]-h-amylin (peptide)
peptide: K([γGlu-C20 diacid])CNTATCATQRLANFLRHSSPNFGAIPSSTNVGRNTY-NH2
modifications: disulfide 2-7; N-terminus assumed
SMILES: CC[C@H](C)[C@H](NC(=O)[C@H](C)NC(=O)CNC(=O)[C@H](Cc1ccccc1)NC(=O)[C@H](CC(N)=O)NC(=O)[C@@H]1CCCN1C(=O)[C@H](CO)NC(=O)[C@H](CO)NC(=O)[C@H](Cc1c[nH]cn1)NC(=O)[C@H](CCCNC(=N)N)NC(=O)[C@H](CC(C)C)NC(=O)[C@H](Cc1ccccc1)NC(=O)[C@H](CC(N)=O)NC(=O)[C@H](C)NC(=O)[C@H](CC(C)C)NC(=O)[C@H](CCCNC(=N)N)NC(=O)[C@H](CCC(N)=O)NC(=O)[C@@H](NC(=O)[C@H](C)NC(=O)[C@@H]1CSSC[C@H](NC(=O)[C@@H](N)CCCCNC(=O)CC[C@H](NC(=O)CCCCCCCCCCCCCCCCCCC(=O)O)C(=O)O)C(=O)N[C@@H](CC(N)=O)C(=O)N[C@@H]([C@@H](C)O)C(=O)N[C@@H](C)C(=O)N[C@@H]([C@@H](C)O)C(=O)N1)[C@@H](C)O)C(=O)N1CCC[C@H]1C(=O)N[C@@H](CO)C(=O)N[C@@H](CO)C(=O)N[C@H](C(=O)N[C@@H](CC(N)=O)C(=O)N[C@H](C(=O)NCC(=O)N[C@@H](CCCNC(=N)N)C(=O)N[C@@H](CC(N)=O)C(=O)N[C@H](C(=O)N[C@@H](Cc1ccc(O)cc1)C(N)=O)[C@@H](C)O)C(C)C)[C@@H](C)O
notes: also called compound 79
Consider B3, for which the IC50 in experiment [1] was 36.4 nM. For the same molecule, in experiment [2], the “Ratio hCT/hAmylin binding” value was determined as 46.1.

B4: N^ε1-[(4S)-4-carboxy-4-(19-carboxynonadecanoylamino)butanoyl]-[Ala14,Arg17,Pro21,Pro27,His34]-h-amylin (peptide)
peptide: K([γGlu-C20 diacid])CNTATCATQRLAAFLRHSSPNFGAIPSSTNVGHNTY-NH2
modifications: disulfide 2-7; N-terminus assumed
SMILES: CC[C@H](C)[C@H](NC(=O)[C@H](C)NC(=O)CNC(=O)[C@H](Cc1ccccc1)NC(=O)[C@H](CC(N)=O)NC(=O)[C@@H]1CCCN1C(=O)[C@H](CO)NC(=O)[C@H](CO)NC(=O)[C@H](Cc1c[nH]cn1)NC(=O)[C@H](CCCNC(=N)N)NC(=O)[C@H](CC(C)C)NC(=O)[C@H](Cc1ccccc1)NC(=O)[C@H](C)NC(=O)[C@H](C)NC(=O)[C@H](CC(C)C)NC(=O)[C@H](CCCNC(=N)N)NC(=O)[C@H](CCC(N)=O)NC(=O)[C@@H](NC(=O)[C@H](C)NC(=O)[C@@H]1CSSC[C@H](NC(=O)[C@@H](N)CCCCNC(=O)CC[C@H](NC(=O)CCCCCCCCCCCCCCCCCCC(=O)O)C(=O)O)C(=O)N[C@@H](CC(N)=O)C(=O)N[C@@H]([C@@H](C)O)C(=O)N[C@@H](C)C(=O)N[C@@H]([C@@H](C)O)C(=O)N1)[C@@H](C)O)C(=O)N1CCC[C@H]1C(=O)N[C@@H](CO)C(=O)N[C@@H](CO)C(=O)N[C@H](C(=O)N[C@@H](CC(N)=O)C(=O)N[C@H](C(=O)NCC(=O)N[C@@H](Cc1c[nH]cn1)C(=O)N[C@@H](CC(N)=O)C(=O)N[C@H](C(=O)N[C@@H](Cc1ccc(O)cc1)C(N)=O)[C@@H](C)O)C(C)C)[C@@H](C)O
notes: also called compound 93
B4: in experiment [1], the IC50 amounted to 17.8 nM. Moreover, the “Ratio hCT/hAmylin binding” value in experiment [2] turned out to be 101.

B5: N^ε1-[2-[2-[2-[[(4S)-4-carboxy-4-(19-carboxynonadecanoylamino)butanoyl]amino]ethoxy]ethoxy]acetyl]-[Thr14,Arg17,Pro21,Pro27,Pro31]-h-amylin (peptide)
peptide: K([AEEA-γGlu-C20 diacid])CNTATCATQRLATFLRHSSPNFGAIPSSTPVGSNTY-NH2
modifications: disulfide 2-7; N-terminus assumed
SMILES: CC[C@H](C)[C@H](NC(=O)[C@H](C)NC(=O)CNC(=O)[C@H](Cc1ccccc1)NC(=O)[C@H](CC(N)=O)NC(=O)[C@@H]1CCCN1C(=O)[C@H](CO)NC(=O)[C@H](CO)NC(=O)[C@H](Cc1c[nH]cn1)NC(=O)[C@H](CCCNC(=N)N)NC(=O)[C@H](CC(C)C)NC(=O)[C@H](Cc1ccccc1)NC(=O)[C@@H](NC(=O)[C@H](C)NC(=O)[C@H](CC(C)C)NC(=O)[C@H](CCCNC(=N)N)NC(=O)[C@H](CCC(N)=O)NC(=O)[C@@H](NC(=O)[C@H](C)NC(=O)[C@@H]1CSSC[C@H](NC(=O)[C@@H](N)CCCCNC(=O)COCCOCCNC(=O)CC[C@H](NC(=O)CCCCCCCCCCCCCCCCCCC(=O)O)C(=O)O)C(=O)N[C@@H](CC(N)=O)C(=O)N[C@@H]([C@@H](C)O)C(=O)N[C@@H](C)C(=O)N[C@@H]([C@@H](C)O)C(=O)N1)[C@@H](C)O)[C@@H](C)O)C(=O)N1CCC[C@H]1C(=O)N[C@@H](CO)C(=O)N[C@@H](CO)C(=O)N[C@H](C(=O)N1CCC[C@H]1C(=O)N[C@H](C(=O)NCC(=O)N[C@@H](CO)C(=O)N[C@@H](CC(N)=O)C(=O)N[C@H](C(=O)N[C@@H](Cc1ccc(O)cc1)C(N)=O)[C@@H](C)O)C(C)C)[C@@H](C)O
notes: also called compound 75
For the molecule B5, the IC50 in experiment [1] was found to be 60.9 nM. Further, in experiment [2], the “Ratio hCT/hAmylin binding” value was determined as 91.4.

B6: N^ε1-[(4S)-4-carboxy-4-(19-carboxynonadecanoylamino)butanoyl]-[Arg14,Arg17,Pro21,Pro27]-h-amylin (peptide)
peptide: K([γGlu-C20 diacid])CNTATCATQRLARFLRHSSPNFGAIPSSTNVGSNTY-NH2
modifications: disulfide 2-7; N-terminus assumed
SMILES: CC[C@H](C)[C@H](NC(=O)[C@H](C)NC(=O)CNC(=O)[C@H](Cc1ccccc1)NC(=O)[C@H](CC(N)=O)NC(=O)[C@@H]1CCCN1C(=O)[C@H](CO)NC(=O)[C@H](CO)NC(=O)[C@H](Cc1c[nH]cn1)NC(=O)[C@H](CCCNC(=N)N)NC(=O)[C@H](CC(C)C)NC(=O)[C@H](Cc1ccccc1)NC(=O)[C@H](CCCNC(=N)N)NC(=O)[C@H](C)NC(=O)[C@H](CC(C)C)NC(=O)[C@H](CCCNC(=N)N)NC(=O)[C@H](CCC(N)=O)NC(=O)[C@@H](NC(=O)[C@H](C)NC(=O)[C@@H]1CSSC[C@H](NC(=O)[C@@H](N)CCCCNC(=O)CC[C@H](NC(=O)CCCCCCCCCCCCCCCCCCC(=O)O)C(=O)O)C(=O)N[C@@H](CC(N)=O)C(=O)N[C@@H]([C@@H](C)O)C(=O)N[C@@H](C)C(=O)N[C@@H]([C@@H](C)O)C(=O)N1)[C@@H](C)O)C(=O)N1CCC[C@H]1C(=O)N[C@@H](CO)C(=O)N[C@@H](CO)C(=O)N[C@H](C(=O)N[C@@H](CC(N)=O)C(=O)N[C@H](C(=O)NCC(=O)N[C@@H](CO)C(=O)N[C@@H](CC(N)=O)C(=O)N[C@H](C(=O)N[C@@H](Cc1ccc(O)cc1)C(N)=O)[C@@H](C)O)C(C)C)[C@@H](C)O
notes: also called compound 83
With B6, the IC50 in experiment [1] amounted to 137 nM. Besides, the “Ratio hCT/hAmylin binding” value in experiment [2] was found to be 146.

For orientation: IC50 means the concentration that inhibits the measured activity by half.
